{
  "source": "paper PMC2836971",
  "target": "Myc-tagged Emi2-C RL^+ mutant (only the RL motif intact; D-box and ZBR mutated) (Xenopus) (UniProt Q8AXF4)",
  "experiment": "co-IP",
  "data": [
    {"substance": "Cdc27 (APC/C core subunit), endogenous in Xenopus CSF extracts (natural protein)", "values": [
      {"measurement": "percent less strongly associated with Cdc27 than the WT", "result": 50, "unit": "%"}
    ]}
  ]
}
